Laboratory results taken from US20050119187A1 (BOARD OF SUPERVISORS OF LOUISIANA STATE UNIVERSITY AND …, published 2005).
*1 amine or outer side, *2 acyl side, *3 side chain or, on linkers, in order; H or OH if unused. Where no end group is shown, it is not given here. [ ]: non-standard residue; d: D form. Dbzg = C-alpha,alpha-dibenzylglycine, O=C(C(Cc1ccccc1)(Cc1ccccc1)N[*:1])[*:2]; Dibg = C-alpha,alpha-diisobutylglycine, CC(C)CC(CC(C)C)(N[*:1])C(=O)[*:2]; Dpg = CCCC(N)(CCC)C(=O)O

B1: AMY-2: (Lys)7-Dibg-Val-Dbzg-Phe-Dpg-NH2 (peptide)
peptide: KKKKKKK[Dibg]V[Dbzg]F[Dpg]-NH2
modifications: N-terminus assumed
SMILES: CCCC(CCC)(NC(=O)[C@H](Cc1ccccc1)NC(=O)C(Cc1ccccc1)(Cc1ccccc1)NC(=O)[C@@H](NC(=O)C(CC(C)C)(CC(C)C)NC(=O)[C@H](CCCCN)NC(=O)[C@H](CCCCN)NC(=O)[C@H](CCCCN)NC(=O)[C@H](CCCCN)NC(=O)[C@H](CCCCN)NC(=O)[C@H](CCCCN)NC(=O)[C@@H](N)CCCCN)C(C)C)C(N)=O
notes: Synthetic beta-strand mimic based on Abeta16-21 (KLVFFA), with the oligolysine stretch at the N-terminus

Assays:
[1] = molecular target: amyloidogenic peptide Aβ10-35 (UniProt P05067); experiment: cell-based or functional assay
[2] = molecular target: the molecule itself; experiment: preliminary studies, self-aggregation (data not shown)

Sequence of amyloidogenic peptide Aβ10-35 (P05067 681-706): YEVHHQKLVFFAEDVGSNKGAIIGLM

Molecule | inhibition of aggregation (amyloid fibril formation) [1] | binding result [2]
AMY-1: Lys-Dibg-Val-Dbzg-Phe-Dpg-(Lys)6-NH2 (peptide) | 5 µM | –
B1 | – | binds
